Laboratory results as given in US20250250357A1 (NANJING ZAIMING PHARMACEUTICAL, published 2025).
Where a chain is given by its changes, count along the chain named.

T1: human MSLN-R1-his protein (human, UniProt Q13421 296-390)
T1 construct: Self-made in HEK293E cells; also called human MSLN-R1 protein; hMSLN-R1-his; not shown: His tag
T1 chain: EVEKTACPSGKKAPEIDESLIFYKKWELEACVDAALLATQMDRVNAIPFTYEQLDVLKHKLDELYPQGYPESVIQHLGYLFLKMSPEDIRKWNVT

B1: S009-F2.58.8 (antibody, human IgG1, kappa, V domains shown)
VH: QVQLLQSGAELAKPGASVKLSCKASGYTFTSYWVHWVKQRPGQGLEWIGYINPNSGYTKYNQKFKDKATLTADKSSSTAYMQLSSLTYEDSAVYYCADHYYGSSRDYFDYWGQGTTLTVSS
VL: QIVLTQSPAIMSASPGEKVTMTCSASSSVSYMYWYQQRPGSSPRLLIYDTSNLASGVPVRFSGSGSGTSYSLTISRMEAEDAATYYCQQWNSYPYTFGGGTKLEIKR
notes: Human-murine chimeric antibody: murine VH/VL on human IgG1 heavy and kappa light constant regions
B2: S009-F2.47.1 (antibody, human IgG1, kappa, V domains shown)
VH: QVQLQQPGAELVKPGASVKLSCKASGYTFTSYWMHWVKQRPGQGLEWIGMIHPNSGSTNYNEKFKSKATLTVDKSSSTAYMQLSSLTSEDSAVYYCARPVVPYWYFDVWGTGTTVTVSS
VL: DIVMTQSQKFMSTTVGDRVSITCKASQNVGTAVAWYQQKPGQSPKLLIYSASNRYTGVPDRFTGSGSGTDFTLTISNMQSEDLADYFCQQSSSYPLTFGAGTKLELKR
notes: as for B1
B3: S009-F2-56.12 (antibody, human IgG1, kappa, V domains shown)
VH: DVQLQESGPGMVKPSQSLSLTCTVTGYSITSGYDWHWIRHFPGNKLEWMGYISYSGSTNYNPSLKSRISITHDTSKNHFFLKLKSVTTEDTATYYCARGTGPDYWGQGTTLTVSS
VL: DIVMTQSQKFMSTSVGDRVSITCKASQNVRTAVAWYQQKPGQSPKALIHLPSNRHTGVPDRFTGSGSGTDFTLTISNVQSEDLADYFCLQHWNYPLTFGGGTKLEIKR
notes: as for B1
B4: S009-F3.23.1 (antibody, human IgG1, kappa, V domains shown)
VH: QVQLQQSGADLVRPGASVTLSCKASGYTFTDYEMHWVKQTPVHGLEWIGAIDPETGDTVYNQNFKGKAILTADKSSSTAYMELRSLTSEDSAVYYCTRYGYDWGWGQGTTLTVSS
VL: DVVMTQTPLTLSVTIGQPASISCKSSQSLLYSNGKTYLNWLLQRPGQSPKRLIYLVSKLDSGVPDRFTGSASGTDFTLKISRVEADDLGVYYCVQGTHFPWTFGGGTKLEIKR
notes: as for B1
B5: S009-F3.7.3 (antibody, human IgG1, kappa, V domains shown)
VH: EVNFEESGGGLVQPGGSMKLSCVASGFTFSNYWMNWVRQSPEKGLEWVAQIRLKSDNYATHYAESVKGRFTISRDDFKSSVYLQMNNLRAEDTGIYYCTVGTGGYWGQGTTLTVSS
VL: DIVLTQSPASLAMSLGKRATISCRASESVSIVGTNVIHWFQQKPGQPPKLLIYHASNLETGVPARFSGSGSGTDFTLTIDPVEEDDVAIYHCLQSRKIPWTFGGGTKLEIKR
notes: as for B1
B6: S009-F3.16.1 (antibody, human IgG1, kappa, V domains shown)
VH: B5 VH with N3K, T71S, F77S, T99S
VL: B5 VL with M13L, L15P, V32I, N35D, G72R, H91Y
notes: as for B1

Target: T2, human MSLN-R3-3 polypeptide (human)
T2 construct: also called human MSLN-R3-3 protein; hMSLN-R3-3
Experiment: ELISA on coated antigen, no antibody (column none)
Protocol: (§1) The plate was sealed with a plastic film and incubated at 4° C. overnight. The next day, the plate was washed twice with PBST, and a blocking buffer [PBS+2% (w/w) BSA] was added for blocking at room temperature for 2 h. The blocking buffer was discarded, and a chimeric antibody or negative control antibody serially diluted from 100 nM was added at 50 μL/well. After incubation at 37° C. for 2 h, the plate was washed 3 times with PBST. […] After incubation at 37° C. for 2 h, the plate was washed 5 times with PBST. A TMB substrate was added at 50 μL/well for incubation at room temperature for 5-10 min, and then a stop solution (1.0 N HCl) was added at 50 μL/well.

| Binder | OD450 [OD450] |
| --- | --- |
| B1 | 0.06 |
| B2 | 0.06 |
| B3 | 0.07 |

Target: T3, human MSLN-R2-his protein (human, UniProt Q13421 391-486)
T3 construct: Self-made in HEK293E cells; also called human MSLN-R2 protein; hMSLN-R2-his; not shown: His tag
Experiment: ELISA on coated antigen, antibody 100 nM

T3 sequence (Q13421 other isoform, or with tags, fused parts or gaps): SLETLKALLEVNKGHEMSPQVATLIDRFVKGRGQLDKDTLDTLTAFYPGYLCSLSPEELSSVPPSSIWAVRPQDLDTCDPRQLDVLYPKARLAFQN

| Binder | OD450 [OD450] |
| --- | --- |
| B1 | 2.63 |
| B2 | 0.06 |
| B3 | 0.17 |

Target: T4, human MSLN-FL-his protein (human, UniProt Q13421 296-580)
T4 construct: Self-made in HEK293E cells; also called human MSLN full-length protein; hMSLN-FL-his; not shown: His tag
Experiment: ELISA on coated antigen, antibody 100 nM

| Binder | OD450 [OD450] |
| --- | --- |
| B4 | 2.39 |
| B5 | 0.13 |
| B6 | 0.12 |

Target: T3, human MSLN-R2-his protein
Experiment: ELISA on coated antigen, antibody 0.1 nM
Protocol: as §1

| Binder | OD450 [OD450] |
| --- | --- |
| B1 | 0.63 |
| B2 | 0.05 |
| B3 | 0.06 |

Target: T5, human MSLN-R3-his protein (human, UniProt Q13421 487-598)
T5 construct: Self-made in HEK293E cells; also called human MSLN-R3 protein; hMSLN-R3-his; not shown: His tag
Experiment: ELISA on coated antigen, no antibody (column none)

T5 sequence (Q13421 495-606): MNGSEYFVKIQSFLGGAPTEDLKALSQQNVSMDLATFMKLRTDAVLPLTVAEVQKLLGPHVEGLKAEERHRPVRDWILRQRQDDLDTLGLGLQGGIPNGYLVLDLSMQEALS

| Binder | OD450 [OD450] |
| --- | --- |
| B1 | 0.05 |
| B2 | 0.05 |
| B3 | 0.06 |

Target: T3, human MSLN-R2-his protein
Experiment: ELISA on coated antigen, antibody 10 nM
Protocol: as §1

| Binder | OD450 [OD450] |
| --- | --- |
| B1 | 2.43 |
| B2 | 0.05 |
| B3 | 0.07 |

Target: T5, human MSLN-R3-his protein
Experiment: ELISA on coated antigen, antibody 1 nM
Protocol: as §1

| Binder | OD450 [OD450] |
| --- | --- |
| B1 | 0.05 |
| B2 | 0.05 |
| B3 | 0.06 |

Target: T4, human MSLN-FL-his protein
Experiment: ELISA on coated antigen, antibody 0.1 nM
Protocol: as §1

| Binder | OD450 [OD450] |
| --- | --- |
| B4 | 1.76 |
| B5 | 0.07 |
| B6 | 0.08 |

Target: T2, human MSLN-R3-3 polypeptide
Experiment: ELISA on coated antigen, antibody 0.0001 nM
Protocol: as §1

| Binder | OD450 [OD450] |
| --- | --- |
| B1 | 0.05 |
| B2 | 0.05 |
| B3 | 0.06 |

Target: T1, human MSLN-R1-his protein
Experiment: ELISA on coated antigen, antibody 1 nM
Protocol: as §1

| Binder | OD450 [OD450] |
| --- | --- |
| B4 | 0.06 |
| B5 | 0.07 |
| B6 | 0.06 |

Target: T4, human MSLN-FL-his protein
Experiment: ELISA on coated antigen, no antibody (column none)
Protocol: as §1

| Binder | OD450 [OD450] |
| --- | --- |
| B4 | 0.07 |
| B5 | 0.08 |
| B6 | 0.08 |

Target: T2, human MSLN-R3-3 polypeptide
Experiment: ELISA on coated antigen, antibody 100 nM
Protocol: as §1

| Binder | OD450 [OD450] |
| --- | --- |
| B1 | 0.07 |
| B2 | 0.06 |
| B3 | 0.14 |

Target: T3, human MSLN-R2-his protein
Experiment: ELISA on coated antigen, antibody 0.001 nM
Protocol: as §1

| Binder | OD450 [OD450] |
| --- | --- |
| B1 | 0.06 |
| B2 | 0.05 |
| B3 | 0.06 |

Target: T5, human MSLN-R3-his protein
Experiment: ELISA on coated antigen, antibody 0.1 nM
Protocol: as §1

| Binder | OD450 [OD450] |
| --- | --- |
| B1 | 0.05 |
| B2 | 0.05 |
| B3 | 0.05 |

Target: T1, human MSLN-R1-his protein
Experiment: ELISA on coated antigen, antibody 0.0001 nM
Protocol: as §1

| Binder | OD450 [OD450] |
| --- | --- |
| B4 | 0.07 |
| B5 | 0.07 |
| B6 | 0.07 |

Target: T4, human MSLN-FL-his protein
Experiment: ELISA on coated antigen, antibody 10 nM
Protocol: as §1

| Binder | OD450 [OD450] |
| --- | --- |
| B4 | 2.11 |
| B5 | 0.08 |
| B6 | 0.11 |

Target: T2, human MSLN-R3-3 polypeptide
Experiment: ELISA on coated antigen, antibody 0.01 nM
Protocol: as §1

| Binder | OD450 [OD450] |
| --- | --- |
| B1 | 0.06 |
| B2 | 0.05 |
| B3 | 0.05 |

Target: T3, human MSLN-R2-his protein
Experiment: ELISA on coated antigen, antibody 0.0001 nM
Protocol: as §1

| Binder | OD450 [OD450] |
| --- | --- |
| B1 | 0.05 |
| B2 | 0.05 |
| B3 | 0.06 |

Target: T5, human MSLN-R3-his protein
Experiment: ELISA on coated antigen, antibody 100 nM
Protocol: as §1

| Binder | OD450 [OD450] |
| --- | --- |
| B1 | 0.07 |
| B2 | 0.06 |
| B3 | 0.13 |

Target: T1, human MSLN-R1-his protein
Experiment: ELISA on coated antigen, antibody 10 nM
Protocol: as §1

| Binder | OD450 [OD450] |
| --- | --- |
| B4 | 0.06 |
| B5 | 0.08 |
| B6 | 0.08 |

Target: T3, human MSLN-R2-his protein
Experiment: ELISA on coated antigen, antibody 0.01 nM
Protocol: as §1

| Binder | OD450 [OD450] |
| --- | --- |
| B1 | 0.12 |
| B2 | 0.05 |
| B3 | 0.06 |

Target: T4, human MSLN-FL-his protein
Experiment: ELISA on coated antigen, antibody 0.01 nM
Protocol: as §1

| Binder | OD450 [OD450] |
| --- | --- |
| B4 | 0.7 |
| B5 | 0.07 |
| B6 | 0.07 |

Target: T1, human MSLN-R1-his protein
Experiment: ELISA on coated antigen, antibody 0.01 nM
Protocol: as §1

| Binder | OD450 [OD450] |
| --- | --- |
| B4 | 0.06 |
| B5 | 0.06 |
| B6 | 0.06 |

Target: T2, human MSLN-R3-3 polypeptide
Experiment: ELISA on coated antigen, antibody 10 nM
Protocol: as §1

| Binder | OD450 [OD450] |
| --- | --- |
| B1 | 0.06 |
| B2 | 0.06 |
| B3 | 0.07 |

Target: T5, human MSLN-R3-his protein
Experiment: ELISA on coated antigen, antibody 0.001 nM
Protocol: as §1

| Binder | OD450 [OD450] |
| --- | --- |
| B1 | 0.05 |
| B2 | 0.05 |
| B3 | 0.05 |

Target: T1, human MSLN-R1-his protein
Experiment: ELISA on coated antigen, antibody 100 nM
Protocol: as §1

| Binder | OD450 [OD450] |
| --- | --- |
| B4 | 0.08 |
| B5 | 0.12 |
| B6 | 0.1 |

Target: T1, human MSLN-R1-his protein
Experiment: ELISA on coated antigen, antibody 0.1 nM
Protocol: as §1

| Binder | OD450 [OD450] |
| --- | --- |
| B4 | 0.06 |
| B5 | 0.07 |
| B6 | 0.07 |

Target: T5, human MSLN-R3-his protein
Experiment: ELISA on coated antigen, antibody 0.01 nM
Protocol: as §1

| Binder | OD450 [OD450] |
| --- | --- |
| B1 | 0.05 |
| B2 | 0.05 |
| B3 | 0.05 |

Target: T1, human MSLN-R1-his protein
Experiment: ELISA on coated antigen, no antibody (column none)
Protocol: as §1

| Binder | OD450 [OD450] |
| --- | --- |
| B4 | 0.07 |
| B5 | 0.08 |
| B6 | 0.08 |

Target: T2, human MSLN-R3-3 polypeptide
Experiment: ELISA on coated antigen, antibody 1 nM
Protocol: as §1

| Binder | OD450 [OD450] |
| --- | --- |
| B1 | 0.06 |
| B2 | 0.05 |
| B3 | 0.06 |

Target: T3, human MSLN-R2-his protein
Experiment: ELISA on coated antigen, no antibody (column none)
Protocol: as §1

| Binder | OD450 [OD450] |
| --- | --- |
| B1 | 0.06 |
| B2 | 0.06 |
| B3 | 0.07 |

Target: T2, human MSLN-R3-3 polypeptide
Experiment: ELISA on coated antigen, antibody 0.1 nM
Protocol: as §1

| Binder | OD450 [OD450] |
| --- | --- |
| B1 | 0.06 |
| B2 | 0.06 |
| B3 | 0.06 |

Target: T3, human MSLN-R2-his protein
Experiment: ELISA on coated antigen, antibody 1 nM
Protocol: as §1

| Binder | OD450 [OD450] |
| --- | --- |
| B1 | 2.04 |
| B2 | 0.05 |
| B3 | 0.06 |

Target: T4, human MSLN-FL-his protein
Experiment: ELISA on coated antigen, antibody 0.001 nM
Protocol: as §1

| Binder | OD450 [OD450] |
| --- | --- |
| B4 | 0.15 |
| B5 | 0.06 |
| B6 | 0.06 |

Target: T1, human MSLN-R1-his protein
Experiment: ELISA on coated antigen, antibody 0.001 nM
Protocol: as §1

| Binder | OD450 [OD450] |
| --- | --- |
| B4 | 0.06 |
| B5 | 0.07 |
| B6 | 0.07 |

Target: T5, human MSLN-R3-his protein
Experiment: ELISA on coated antigen, antibody 10 nM
Protocol: as §1

| Binder | OD450 [OD450] |
| --- | --- |
| B1 | 0.05 |
| B2 | 0.05 |
| B3 | 0.07 |

Target: T4, human MSLN-FL-his protein
Experiment: ELISA on coated antigen, antibody 0.0001 nM
Protocol: as §1

| Binder | OD450 [OD450] |
| --- | --- |
| B4 | 0.07 |
| B5 | 0.06 |
| B6 | 0.06 |

Target: T4, human MSLN-FL-his protein
Experiment: ELISA on coated antigen, antibody 1 nM
Protocol: as §1

| Binder | OD450 [OD450] |
| --- | --- |
| B4 | 1.98 |
| B5 | 0.07 |
| B6 | 0.08 |

Target: T5, human MSLN-R3-his protein
Experiment: ELISA on coated antigen, antibody 0.0001 nM
Protocol: as §1

| Binder | OD450 [OD450] |
| --- | --- |
| B1 | 0.05 |
| B2 | 0.05 |
| B3 | 0.05 |

Target: T2, human MSLN-R3-3 polypeptide
Experiment: ELISA on coated antigen, antibody 0.001 nM
Protocol: as §1

| Binder | OD450 [OD450] |
| --- | --- |
| B1 | 0.06 |
| B2 | 0.06 |
| B3 | 0.06 |
